Reference: the supplement of paper PMC9170038

These sequences were tested on K4 kissing-loop RNA reporter (assay: apparent KD of K4 kissing-loop reporter; higher = weaker reporter binding). Conditions: Eterna round: R107; input ligand: arginine 13.2 mM.
Procedure: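 RNA-MaP round R107: designed RNA switches with theophylline, tryptophan, arginine or FMN aptamers are transcribed on-chip within common flanks. They are titrated with a labelled K4 kissing-loop RNA reporter in RNA-MaP buffer (100 mM Tris pH 7.5, 80 mM KCl, 4 mM MgCl2), without ligand or with the indicated ligand. Median apparent KD per design.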
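Further: bound reporter read as fluorescence of individual clusters on recovered sequencing chips by microscopy, with normalized cluster intensities fitted with a binding model.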

| Sequence | apparent KD of K4 kissing-loop reporter [nM] |
| --- | --- |
| GGUAGCAUGGCGGCCGCCACUGAGGCCCUAUGCGAGUCCUCUACAACCUAGUGAUGUUAGGCGUCCAGGACCGGGCCAUGCUACC | 44.1 |
| CGAUACGGAAAUACGUGUCUCUAUUCAGAAGGAGCGUGGUAGUACACAGGUAGGUCGCUGAAUUUUAAACUAGUGAUGUUAGUCU [JR_SSArginiA_Sub005] | 281 |
| UAUCUAUGCUCGGCCGCCACUAGGACCGGGUAGUCUCUAGUGAUGUUAGUCUCUACGGCCGCCACUAGGACCGGGAGUGUAGAUA [KL-SSTryp-B16 #DoubleAptamer] | 235 |
| CGCCGUAAGGCGGUCGCUCCCACUCCGGAAGGAGCGCCCGGAAGGGCAGGUAGGUCGCCGGAGUGAUGUUCCGGUGGAGGGACCG [#2 Exclusion - Arginine A Attempt #9 (Inspired by Omei)] | 295 |
| UCGCCGCUCACGGCCGCCACUAAGCCCAAGACCAGAGAGUGAUGUUCUAUCCACGUUUCAAUUUUUAGGACCGGGUGAAAGGCGA [theeternabot_sameState_KL_Trp_B_14] | 411 |
| UGUGUUGUUUUGAUGUUUGGUGUUGCAUGGCAGGAUAUCGUAGAGGCGAGAAGGGCUUGUGAGCGGUAUGAGUGAUGUUUGUAGG [bbgbmullin] | 270 |

Same assay, conditions: Eterna round: R107; input ligand: none

| Sequence | apparent KD of K4 kissing-loop reporter [nM] |
| --- | --- |
| GGCGGCUGCGCGGAAGCGCAGCCGGCCGAUACCAGCGCGACGGCGCGCCCUUGGCAGCGGCGCCGAGUGAUGUUCGGCCUGCCGU [#2 Same State - Theophylline A Attempt #21 (HarryS)] | 95.3 |
| UGUGAUGUGUAGUGUAAUGUUUUGCGGGAUACCAGAGUCUUUUUAUUCCCUUGGCAGCUUGAGUGAUGUUUGAUGCUGUUCUUGU [llmdmullin] | 479 |
| AACUGUCAAGGACAACAUUACUGAGGUGAUACCAGGUUUGAGAGGAUCCCUUGGCAGCACCAACUUGCAGUGAUGUUGCAAGUAA [BrourdMod 15 - Jieux - Exclusion - Theophylline A] | 240 |
| CGCAGUGAUGUUGCGAGUAGCUACAGGGAAGGAGCGUGCUAGAGCACAGGUAGGUCGCCCACGCAGUGAUGUUGUGUUAAAGGGU [Exclusion Arginine A GF 12] | 123 |
| UAUAUAGUGACGGCCGCCACUAUUGUGAUGUUAUUGUUAGAGUGAUGUUUUGUUGUUUAAUUUUGUAGGACCGGGUUAUAUGUUA [xxzsmullin] | 568 |
| CCACAAUAUGGAAGGAGCGCCAGUGAUGUUGGUGCUUGCUUUAGGUAAGACCGGCCUAUUUGGCAGGUAGGUCGCCAUAUUCAAC [Ageat] | 97.7 |
| GUGGCGGGCCAAGGAUAUAUUUUGGAGUGAUGUUGUUCAUUUAUUUGAGCUAGUGAUGUUGGUCGAAUAGAAGGUGGCCCGCCAC [whbob_Ex_FMNB__2th220] | 52.8 |
| AAGCCAUACUCGGCCGCCACUUACUUCGUUGCAGUGAUGUUGCACACGAAUCCGUCAUAGCAAAUAAGGACCGGGAGAUAUACCG [theeternabot_exclusion_KL_Trp_B_19] | 95.1 |
| CCAGAAUGAUGAGGAUGAUAAAUUACUGAAGGAGCGCAUAUAGUUGCAGGUAGGUCGCGGUGAAUAAGUAUAGUGAUGUUAUACC [SSArgA.Ab] | 314 |
| GCUAUGGUAGGAAGGAGCGCUUGCUCGGUCAUAAGAGUGAUGUUCGAGACCGAGCAUUUAUAGCAGGUAGGUCGCCUACUAUAGC [Arginine B K4 7] | 200 |
| CCAGGAUGAUGAGGAUGAUAAAUUACUGAAGGAGCGCAUAUAGUUGCAGGUAGGUCGCGGUGAAUAAGUAUAGUGAUGUUAUACC [SSArgA.Aa] | 309 |
| UCUCCAAAGUCGGCCGCCACUCCGGGCCCUAUAAAUGGGCGCAGUGAUGUUGCGGCUAGGCCUCUGAGGACCGGGACUUUGUAGA [Estiorquin] | 31.3 |
| UGAUUGGCGAAAGUAGUGAUGUUACGAAUAUAGGAUAUUAGAGGAAUAAGAAGGAUAAAGGAGAAAUAGGUAAAUUGUUGGUUGG [whbob_SS_FMNA__2th169] | 104 |
| ACGUCACGUAUACUCGUGGUUUCGAUCGAUACCAGUAGCGAGAGUUACCCUUGGCAGCGACAUGAGUGAUGUUCAUGUGCGAAGA [KL-XTheo-A3 #analogue] | 112 |
| GGCGCAGUGAUGUUGCGGGCCGAGAGUGAUACCAGCCGUAUUUGUGGCCCUUGGCAGCGCAGAACCAGUGAUGUUGGUUACUUGG [Same State Theophylline A GF 22] | 423 |
| AAAAUAAAGGAGUGAUGUUCCAUAACGGAUACCAGCCACGAAAGUGGCCCUUGGCAGCUGUGCCAGUGGACGAAUAACGUCCACA [#OpenEnded 6 #StaticStem #K4Early] | 237 |
| UGUCAUUGGUCGGCCGCCACUAGGACCGGGUUUUGCCUAGUGAUGUUAGUAUGAACGGCCGCCACUAGGACCGGGACCGAUGACU [KL-SSTryp-B26 #DoubleAptamer] | 473 |
| UCGCCCGAUGGAGAUACCAGCAGUUGUGCAGUGAUGUUGCACAAGUACUCGCUCCAUUGCUGCCCUUGGCAGCUCCCGGCAAACA [Enraed] | 87.6 |
| AUAUUACUAUACGAUACCAGCCCUAACACUAGUGACGCGGUAAUAGUGAUGUUGUAACCCGGCCCUUGGCAGCGUAAUCAUGGAA [theeternabot_sameState_KL_Theo_B_7] | 519 |
| UCUGGAGUAUAUGAUACCAGCAGUGAGAGACAGGAAGUAUAGUGAUGUUAUAUGAGAGAAUGCCCUUGGCAGCGUGUGCGGUGGC [SSTheophylB.Q] | 61.6 |
| GCACUACAAUAAGGAUAUCAUAAAAUGGAGAGCGAGUGAUGUUCGCAGAGACACCUAUUUUUCCUAUGAGAAGGUAUUAACGCCG [theeternabot_sameState_KL_FMN_B_40] | 120 |
